Results published in publication PMC4436832 (Molecular Biology of the Cell, 2015).

Key:
[1] = molecular target: Acanthamoeba castellani actin (filaments) (Acanthamoeba castellani)
[2] = molecular target: Taxol-stabilized microtubules (tubulin, Cytoskeleton T240) (UniProt P02550); test: co-sedimentation
SEC = molecular target: the molecule itself; test: SEC

Binder	koff [1]	Kd [2]	stoichiometry N (α/β dimers per binding site) [2]	stoichiometry N (SEC)
Wild-type CapuCT (C-terminal Capu construct, residues 467–1059) (domain or fragment) VSDNESAKEDGEKPHAVAPPPPPPPPPLHAFVAPPPPPPPPPPPPPPLANYGAPPPPPPPPPGSGSAPPPPPPAPIEGGGGIPPPPPPMSASPSKTTISPAPLPDPAEGNWFHRTNTMRKSAVNPPKPMRPLYWTRIVTSAPPAPRPPSVANSTDSTENSGSSPDEPPAANGADAPPTAPPATKEIWTEIEETPLDNIDEFTELFSRQAIAPVSKPKELKVKRAKSIKVLDPERSRNVGIIWRSLHVPSSEIEHAIYHIDTSVVSLEALQHMSNIQATEDELQRIKEAAGGDIPLDHPEQFLLDISLISMASERISCIVFQAEFEESVTLLFRKLETVSQLSQQLIESEDLKLVFSIILTLGNYMNGGNRQRGQADGFNLDILGKLKDVKSKESHTTLLHFIVRTYIAQRRKEGVHPLEIRLPIPEPADVERAAQMDFEEVQQQIFDLNKKFLGCKRTTAKVLAASRPEIMEPFKSKMEEFVEGADKSMAKLHQSLDECRDLFLETMRFYHFSPKACTLTLAQCTPDQFFEYWTNFTNDFKDIWKKEITSLLNELMKKSKQAQIESRRNVSTKVEKSGRISLKERMLMRRSKN	0.000245 s⁻¹	150 nM	1.42	2
CapuCT-I751T (domain or fragment) VSDNESAKEDGEKPHAVAPPPPPPPPPLHAFVAPPPPPPPPPPPPPPLANYGAPPPPPPPPPGSGSAPPPPPPAPIEGGGGIPPPPPPMSASPSKTTISPAPLPDPAEGNWFHRTNTMRKSAVNPPKPMRPLYWTRIVTSAPPAPRPPSVANSTDSTENSGSSPDEPPAANGADAPPTAPPATKEIWTEIEETPLDNIDEFTELFSRQAIAPVSKPKELKVKRAKSIKVLDPERSRNVGIIWRSLHVPSSEIEHAIYHIDTSVVSLEALQHMSNIQATEDELQRTKEAAGGDIPLDHPEQFLLDISLISMASERISCIVFQAEFEESVTLLFRKLETVSQLSQQLIESEDLKLVFSIILTLGNYMNGGNRQRGQADGFNLDILGKLKDVKSKESHTTLLHFIVRTYIAQRRKEGVHPLEIRLPIPEPADVERAAQMDFEEVQQQIFDLNKKFLGCKRTTAKVLAASRPEIMEPFKSKMEEFVEGADKSMAKLHQSLDECRDLFLETMRFYHFSPKACTLTLAQCTPDQFFEYWTNFTNDFKDIWKKEITSLLNELMKKSKQAQIESRRNVSTKVEKSGRISLKERMLMRRSKN	0.00277 s⁻¹	–	–	–
CapuCT-H977Y (domain or fragment) VSDNESAKEDGEKPHAVAPPPPPPPPPLHAFVAPPPPPPPPPPPPPPLANYGAPPPPPPPPPGSGSAPPPPPPAPIEGGGGIPPPPPPMSASPSKTTISPAPLPDPAEGNWFHRTNTMRKSAVNPPKPMRPLYWTRIVTSAPPAPRPPSVANSTDSTENSGSSPDEPPAANGADAPPTAPPATKEIWTEIEETPLDNIDEFTELFSRQAIAPVSKPKELKVKRAKSIKVLDPERSRNVGIIWRSLHVPSSEIEHAIYHIDTSVVSLEALQHMSNIQATEDELQRIKEAAGGDIPLDHPEQFLLDISLISMASERISCIVFQAEFEESVTLLFRKLETVSQLSQQLIESEDLKLVFSIILTLGNYMNGGNRQRGQADGFNLDILGKLKDVKSKESHTTLLHFIVRTYIAQRRKEGVHPLEIRLPIPEPADVERAAQMDFEEVQQQIFDLNKKFLGCKRTTAKVLAASRPEIMEPFKSKMEEFVEGADKSMAKLHQSLDECRDLFLETMRFYYFSPKACTLTLAQCTPDQFFEYWTNFTNDFKDIWKKEITSLLNELMKKSKQAQIESRRNVSTKVEKSGRISLKERMLMRRSKN	0.0013 s⁻¹	180 nM	0.95	2
CapuCT-P597L (domain or fragment) VSDNESAKEDGEKPHAVAPPPPPPPPPLHAFVAPPPPPPPPPPPPPPLANYGAPPPPPPPPPGSGSAPPPPPPAPIEGGGGIPPPPPPMSASPSKTTISPAPLPDPAEGNWFHRTNTMRKSAVNPPKPMRLLYWTRIVTSAPPAPRPPSVANSTDSTENSGSSPDEPPAANGADAPPTAPPATKEIWTEIEETPLDNIDEFTELFSRQAIAPVSKPKELKVKRAKSIKVLDPERSRNVGIIWRSLHVPSSEIEHAIYHIDTSVVSLEALQHMSNIQATEDELQRIKEAAGGDIPLDHPEQFLLDISLISMASERISCIVFQAEFEESVTLLFRKLETVSQLSQQLIESEDLKLVFSIILTLGNYMNGGNRQRGQADGFNLDILGKLKDVKSKESHTTLLHFIVRTYIAQRRKEGVHPLEIRLPIPEPADVERAAQMDFEEVQQQIFDLNKKFLGCKRTTAKVLAASRPEIMEPFKSKMEEFVEGADKSMAKLHQSLDECRDLFLETMRFYHFSPKACTLTLAQCTPDQFFEYWTNFTNDFKDIWKKEITSLLNELMKKSKQAQIESRRNVSTKVEKSGRISLKERMLMRRSKN	0.0021 s⁻¹	300 nM	0.88	2
CapuCT-K586M (domain or fragment) VSDNESAKEDGEKPHAVAPPPPPPPPPLHAFVAPPPPPPPPPPPPPPLANYGAPPPPPPPPPGSGSAPPPPPPAPIEGGGGIPPPPPPMSASPSKTTISPAPLPDPAEGNWFHRTNTMRMSAVNPPKPMRPLYWTRIVTSAPPAPRPPSVANSTDSTENSGSSPDEPPAANGADAPPTAPPATKEIWTEIEETPLDNIDEFTELFSRQAIAPVSKPKELKVKRAKSIKVLDPERSRNVGIIWRSLHVPSSEIEHAIYHIDTSVVSLEALQHMSNIQATEDELQRIKEAAGGDIPLDHPEQFLLDISLISMASERISCIVFQAEFEESVTLLFRKLETVSQLSQQLIESEDLKLVFSIILTLGNYMNGGNRQRGQADGFNLDILGKLKDVKSKESHTTLLHFIVRTYIAQRRKEGVHPLEIRLPIPEPADVERAAQMDFEEVQQQIFDLNKKFLGCKRTTAKVLAASRPEIMEPFKSKMEEFVEGADKSMAKLHQSLDECRDLFLETMRFYHFSPKACTLTLAQCTPDQFFEYWTNFTNDFKDIWKKEITSLLNELMKKSKQAQIESRRNVSTKVEKSGRISLKERMLMRRSKN	0.000852 s⁻¹	250 nM	0.88	2
CapuCT-D662N (domain or fragment) VSDNESAKEDGEKPHAVAPPPPPPPPPLHAFVAPPPPPPPPPPPPPPLANYGAPPPPPPPPPGSGSAPPPPPPAPIEGGGGIPPPPPPMSASPSKTTISPAPLPDPAEGNWFHRTNTMRKSAVNPPKPMRPLYWTRIVTSAPPAPRPPSVANSTDSTENSGSSPDEPPAANGADAPPTAPPATKEIWTEIEETPLNNIDEFTELFSRQAIAPVSKPKELKVKRAKSIKVLDPERSRNVGIIWRSLHVPSSEIEHAIYHIDTSVVSLEALQHMSNIQATEDELQRIKEAAGGDIPLDHPEQFLLDISLISMASERISCIVFQAEFEESVTLLFRKLETVSQLSQQLIESEDLKLVFSIILTLGNYMNGGNRQRGQADGFNLDILGKLKDVKSKESHTTLLHFIVRTYIAQRRKEGVHPLEIRLPIPEPADVERAAQMDFEEVQQQIFDLNKKFLGCKRTTAKVLAASRPEIMEPFKSKMEEFVEGADKSMAKLHQSLDECRDLFLETMRFYHFSPKACTLTLAQCTPDQFFEYWTNFTNDFKDIWKKEITSLLNELMKKSKQAQIESRRNVSTKVEKSGRISLKERMLMRRSKN	0.000297 s⁻¹	250 nM	0.87	2
CapuCT-D854N (domain or fragment) VSDNESAKEDGEKPHAVAPPPPPPPPPLHAFVAPPPPPPPPPPPPPPLANYGAPPPPPPPPPGSGSAPPPPPPAPIEGGGGIPPPPPPMSASPSKTTISPAPLPDPAEGNWFHRTNTMRKSAVNPPKPMRPLYWTRIVTSAPPAPRPPSVANSTDSTENSGSSPDEPPAANGADAPPTAPPATKEIWTEIEETPLDNIDEFTELFSRQAIAPVSKPKELKVKRAKSIKVLDPERSRNVGIIWRSLHVPSSEIEHAIYHIDTSVVSLEALQHMSNIQATEDELQRIKEAAGGDIPLDHPEQFLLDISLISMASERISCIVFQAEFEESVTLLFRKLETVSQLSQQLIESEDLKLVFSIILTLGNYMNGGNRQRGQADGFNLDILGKLKNVKSKESHTTLLHFIVRTYIAQRRKEGVHPLEIRLPIPEPADVERAAQMDFEEVQQQIFDLNKKFLGCKRTTAKVLAASRPEIMEPFKSKMEEFVEGADKSMAKLHQSLDECRDLFLETMRFYHFSPKACTLTLAQCTPDQFFEYWTNFTNDFKDIWKKEITSLLNELMKKSKQAQIESRRNVSTKVEKSGRISLKERMLMRRSKN	0.000592 s⁻¹	100 nM	1.48	2
